Reference: patent US20250352576A1 (University of California, published 2025)

Target: T1, HLA-A*02:01 on TAP deficient T2 cells (human)
T1 construct: whole, on cells; Endogenous HLA class I of T2 cells, detected with the pan HLA antibody W6/32
Test: T2 cell HLA stabilization assay, flow cytometry with pan HLA antibody W6/32
Method: HLA-A*02:01 TAP deficient T2 cells (2×10⁵ in 200 μL) were incubated with peptides (25 μg per ml in 10% DMSO in PBS) in AIM-V plus 1% human serum at 25° C. overnight to facilitate peptide binding by reducing HLA turnover. The following day the cells were returned to 37° C. for 5 hours then stained with a pan HLA antibody (FITC-conjugated HLA, B, C; clone W6/32). HLA class I expression was measured by flow cytometry, and the percent increase in mean fluorescence intensity over cells incubated with 10% DMSO alone was calculated.

| binding result | Binder |
| --- | --- |
| binds | SMLEKTALL (Peptide added to T2 cells at 25 ug per ml; also called one of the SYY peptides; candidate therapeutic peptide) [SMLEKTALL peptide (Sfxn5/SFXN5 alternative splicing variant)] |
| binds | YMYNKVAVL (Peptide added to T2 cells at 25 ug per ml; also called one of the SYY peptides; candidate therapeutic peptide) [YMYNKVAVL peptide (Atl2/ATL2 alternative splicing variant)] |
